Experimental data published in article PMC11091522.

T1: rmCD3δε-Fc (CD3 delta/CD3 epsilon heterodimer) (mouse, UniProt P04235;P22646 22-105;22-108)
T1 sequence 1: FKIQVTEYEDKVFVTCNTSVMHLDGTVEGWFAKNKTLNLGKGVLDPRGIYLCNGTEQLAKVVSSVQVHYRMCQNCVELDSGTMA
T1 sequence 2: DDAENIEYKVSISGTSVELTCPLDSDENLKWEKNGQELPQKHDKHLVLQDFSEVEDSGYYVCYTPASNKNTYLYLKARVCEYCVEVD

B1: CD3 Apt1 monomer (XNA)
RNA: GGGAGAGAAGGAUAGGGCCCCGAUUGAUUCGCAAUGUGCGUCCCCUCGUGCCUUCCUUAUACCUCCUUUCCC
modifications: 2'-fluoro pyrimidines
B2: CD3 Apt5 monomer (XNA)
RNA: GGGAGAGAAGGAUAGGGCCUUGCCUGCUUUCACGUGUGAUCCCUGCCCGUUUCCUUAUACCUCCUUUCCC
modifications: 2'-fluoro pyrimidines
B3: CD3 Apt12 monomer (XNA)
RNA: GGGAGAGAAGGAUAGGGUCCCCUGUCGAUAUCCACCGUCUGGCCCGCAUUGAUUCCUUAUACCUCCUUUCCC
modifications: 2'-fluoro pyrimidines
B4: CD3 Apt3 monomer (XNA)
RNA: GGGAGAGAAGGAUAGGGUCCCUACCUGAAACUCGAAGAUGAGCCCUGUCUGAUUCCUUAUACCUCCUUUCCC
modifications: 2'-fluoro pyrimidines

Each binder was assayed against T1, rmCD3δε-Fc (CD3 delta/CD3 epsilon …) (assay: filter binding).

Binding result, binds:
B1, B2, B3, B4
